Data taken from patent US20160340439A1.

What was measured:
Experiment in all cases: IP + mass spec of B16 melanoma proteins; ratio to alloIgG
[1] = target: Angiomotin-like protein 2 (mouse) (UniProt Q8K371)
[2] = target: Arginine and glutamate-rich protein 1 (mouse) (UniProt Q3UL36)
[3] = target: CDGSH iron-sulfur domain-containing protein 1 (mouse) (UniProt Q91WS0)
[4] = target: Disco-interacting protein 2 homolog B (mouse) (UniProt Q3UH60)
[5] = target: Fibrous sheath-interacting protein 2 (mouse) (UniProt A2ARZ3)
[6] = target: Mitochondrial inner membrane protein (mouse) (UniProt Q8CAQ8)
Chain of UniProt Q8CAQ8 (Q8CAQ8 34-757 limits assumed): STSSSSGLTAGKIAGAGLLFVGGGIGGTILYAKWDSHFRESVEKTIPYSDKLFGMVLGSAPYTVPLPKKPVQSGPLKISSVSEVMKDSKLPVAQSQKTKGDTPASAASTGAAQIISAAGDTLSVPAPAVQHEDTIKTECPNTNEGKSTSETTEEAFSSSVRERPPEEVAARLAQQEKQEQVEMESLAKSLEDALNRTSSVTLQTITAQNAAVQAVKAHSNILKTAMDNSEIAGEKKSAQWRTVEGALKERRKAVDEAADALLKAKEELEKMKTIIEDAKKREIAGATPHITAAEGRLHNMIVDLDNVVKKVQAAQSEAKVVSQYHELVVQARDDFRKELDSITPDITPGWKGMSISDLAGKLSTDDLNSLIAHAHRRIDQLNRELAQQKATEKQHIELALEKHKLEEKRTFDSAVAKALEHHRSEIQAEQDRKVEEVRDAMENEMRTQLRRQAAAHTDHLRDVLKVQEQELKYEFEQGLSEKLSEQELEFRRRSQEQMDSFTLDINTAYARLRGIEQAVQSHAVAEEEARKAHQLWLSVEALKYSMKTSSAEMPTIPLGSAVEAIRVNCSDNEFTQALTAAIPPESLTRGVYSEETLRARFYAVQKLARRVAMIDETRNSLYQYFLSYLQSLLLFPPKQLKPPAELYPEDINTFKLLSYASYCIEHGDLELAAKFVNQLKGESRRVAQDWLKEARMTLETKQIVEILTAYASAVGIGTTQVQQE

[7] = target: Nicalin (mouse) (UniProt Q8VCM8)
Chain of UniProt Q8VCM8 (Q8VCM8 43-563 limits assumed): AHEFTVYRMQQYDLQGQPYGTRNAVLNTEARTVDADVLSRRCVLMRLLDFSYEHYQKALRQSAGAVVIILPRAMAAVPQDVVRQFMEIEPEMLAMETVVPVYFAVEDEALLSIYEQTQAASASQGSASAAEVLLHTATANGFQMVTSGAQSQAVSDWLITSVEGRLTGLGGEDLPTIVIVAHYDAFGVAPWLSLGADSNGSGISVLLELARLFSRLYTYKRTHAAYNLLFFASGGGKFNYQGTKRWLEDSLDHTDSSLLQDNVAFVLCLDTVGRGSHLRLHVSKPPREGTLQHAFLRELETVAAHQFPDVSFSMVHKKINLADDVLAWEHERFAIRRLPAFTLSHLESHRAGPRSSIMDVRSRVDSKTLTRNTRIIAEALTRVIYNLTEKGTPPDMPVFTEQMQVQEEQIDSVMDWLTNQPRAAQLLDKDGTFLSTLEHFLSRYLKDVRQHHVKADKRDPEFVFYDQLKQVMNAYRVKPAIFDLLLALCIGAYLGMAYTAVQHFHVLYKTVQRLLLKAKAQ

[8] = target: Stromal cell-derived factor 2-like protein 1 (mouse) (UniProt Q9ESP1)
Chain of UniProt Q9ESP1 (Q9ESP1 29-221 limits assumed): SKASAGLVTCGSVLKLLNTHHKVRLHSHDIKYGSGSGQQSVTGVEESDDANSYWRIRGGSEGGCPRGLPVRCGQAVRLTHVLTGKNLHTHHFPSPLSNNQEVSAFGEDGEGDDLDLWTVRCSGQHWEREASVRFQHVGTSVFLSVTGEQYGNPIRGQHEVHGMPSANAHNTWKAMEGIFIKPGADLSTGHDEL

[9] = target: Translocation protein SEC62 (mouse) (UniProt Q8BU14)
Chain of UniProt Q8BU14 (Q8BU14 whole entry): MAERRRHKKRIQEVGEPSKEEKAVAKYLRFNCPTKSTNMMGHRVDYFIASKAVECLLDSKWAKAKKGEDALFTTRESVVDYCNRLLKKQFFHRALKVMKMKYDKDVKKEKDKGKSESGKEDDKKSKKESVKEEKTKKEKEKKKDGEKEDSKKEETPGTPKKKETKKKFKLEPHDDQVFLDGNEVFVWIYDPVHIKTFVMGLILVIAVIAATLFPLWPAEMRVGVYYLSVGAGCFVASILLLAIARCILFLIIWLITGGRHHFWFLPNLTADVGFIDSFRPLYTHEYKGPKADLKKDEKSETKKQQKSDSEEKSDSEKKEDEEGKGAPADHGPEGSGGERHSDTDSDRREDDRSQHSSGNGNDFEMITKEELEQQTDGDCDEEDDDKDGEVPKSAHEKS

[10] = target: Trifunctional enzyme subunit beta, mitochondrial (mouse) (UniProt Q99JY0)
Chain of UniProt Q99JY0 (Q99JY0 35-475 limits assumed): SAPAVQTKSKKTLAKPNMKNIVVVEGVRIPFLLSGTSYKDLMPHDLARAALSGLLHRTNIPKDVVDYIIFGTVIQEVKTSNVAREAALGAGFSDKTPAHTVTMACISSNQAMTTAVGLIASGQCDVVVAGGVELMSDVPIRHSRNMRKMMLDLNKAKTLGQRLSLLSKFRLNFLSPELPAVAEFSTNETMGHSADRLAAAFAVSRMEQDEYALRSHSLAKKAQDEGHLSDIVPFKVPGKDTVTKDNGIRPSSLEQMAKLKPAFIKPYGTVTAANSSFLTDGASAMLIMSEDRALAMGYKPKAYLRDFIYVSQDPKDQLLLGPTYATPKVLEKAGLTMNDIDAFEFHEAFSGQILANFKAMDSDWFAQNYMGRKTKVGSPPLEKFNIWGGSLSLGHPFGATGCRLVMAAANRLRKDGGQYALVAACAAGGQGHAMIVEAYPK

[11] = target: Vacuolar protein sorting-associated protein 35 (mouse) (UniProt Q9EQH3)

Chain of UniProt Q3UL36 (Q3UL36 whole entry, the tested form may be a part): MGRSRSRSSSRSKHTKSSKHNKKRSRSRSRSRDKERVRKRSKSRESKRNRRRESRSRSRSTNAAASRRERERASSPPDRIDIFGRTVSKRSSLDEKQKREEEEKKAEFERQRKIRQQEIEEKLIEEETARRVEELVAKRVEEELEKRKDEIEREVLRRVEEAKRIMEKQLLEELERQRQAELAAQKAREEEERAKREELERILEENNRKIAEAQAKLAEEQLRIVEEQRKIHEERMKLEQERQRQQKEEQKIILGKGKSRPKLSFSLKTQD
Chain of UniProt Q3UH60 (Q3UH60 whole entry): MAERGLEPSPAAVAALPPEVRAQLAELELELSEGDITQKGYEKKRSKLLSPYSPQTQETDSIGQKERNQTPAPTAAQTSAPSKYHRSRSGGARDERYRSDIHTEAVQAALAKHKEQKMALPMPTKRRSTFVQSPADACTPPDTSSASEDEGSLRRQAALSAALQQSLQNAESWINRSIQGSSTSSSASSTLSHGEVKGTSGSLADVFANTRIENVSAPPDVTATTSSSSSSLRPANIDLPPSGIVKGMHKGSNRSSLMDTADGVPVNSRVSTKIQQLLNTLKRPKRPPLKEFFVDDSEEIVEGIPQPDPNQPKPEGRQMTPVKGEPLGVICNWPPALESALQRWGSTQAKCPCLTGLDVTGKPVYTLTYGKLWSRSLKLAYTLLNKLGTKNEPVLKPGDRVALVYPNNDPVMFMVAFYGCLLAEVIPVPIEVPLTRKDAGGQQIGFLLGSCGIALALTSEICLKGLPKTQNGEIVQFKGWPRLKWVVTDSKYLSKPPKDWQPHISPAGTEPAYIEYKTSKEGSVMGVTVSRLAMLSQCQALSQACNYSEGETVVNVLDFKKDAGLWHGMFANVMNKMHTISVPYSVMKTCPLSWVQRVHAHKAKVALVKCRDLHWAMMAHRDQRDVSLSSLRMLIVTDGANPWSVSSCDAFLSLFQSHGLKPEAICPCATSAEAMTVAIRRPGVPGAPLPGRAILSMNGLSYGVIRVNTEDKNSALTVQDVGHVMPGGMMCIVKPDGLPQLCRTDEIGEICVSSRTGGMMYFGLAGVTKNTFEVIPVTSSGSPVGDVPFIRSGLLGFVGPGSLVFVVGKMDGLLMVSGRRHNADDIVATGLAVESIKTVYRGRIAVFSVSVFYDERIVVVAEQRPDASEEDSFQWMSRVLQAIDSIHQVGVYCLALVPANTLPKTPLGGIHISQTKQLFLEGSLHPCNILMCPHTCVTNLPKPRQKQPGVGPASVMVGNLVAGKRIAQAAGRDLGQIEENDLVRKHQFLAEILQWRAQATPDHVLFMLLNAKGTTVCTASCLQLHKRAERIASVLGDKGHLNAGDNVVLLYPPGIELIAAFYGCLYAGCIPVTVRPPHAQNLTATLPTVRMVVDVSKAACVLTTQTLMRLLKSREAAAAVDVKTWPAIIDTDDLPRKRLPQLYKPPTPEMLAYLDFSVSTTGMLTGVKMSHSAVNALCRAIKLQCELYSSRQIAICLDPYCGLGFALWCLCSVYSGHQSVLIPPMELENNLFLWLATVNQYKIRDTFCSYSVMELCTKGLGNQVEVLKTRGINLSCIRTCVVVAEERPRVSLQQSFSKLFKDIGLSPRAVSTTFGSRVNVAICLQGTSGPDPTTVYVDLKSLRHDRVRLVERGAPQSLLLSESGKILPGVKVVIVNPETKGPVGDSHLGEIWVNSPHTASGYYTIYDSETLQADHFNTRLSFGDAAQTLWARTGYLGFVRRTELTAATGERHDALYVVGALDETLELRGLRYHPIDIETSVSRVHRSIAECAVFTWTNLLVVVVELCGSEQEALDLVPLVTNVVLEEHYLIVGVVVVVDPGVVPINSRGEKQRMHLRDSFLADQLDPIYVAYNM
Chain of UniProt Q8K371 (Q8K371 whole entry): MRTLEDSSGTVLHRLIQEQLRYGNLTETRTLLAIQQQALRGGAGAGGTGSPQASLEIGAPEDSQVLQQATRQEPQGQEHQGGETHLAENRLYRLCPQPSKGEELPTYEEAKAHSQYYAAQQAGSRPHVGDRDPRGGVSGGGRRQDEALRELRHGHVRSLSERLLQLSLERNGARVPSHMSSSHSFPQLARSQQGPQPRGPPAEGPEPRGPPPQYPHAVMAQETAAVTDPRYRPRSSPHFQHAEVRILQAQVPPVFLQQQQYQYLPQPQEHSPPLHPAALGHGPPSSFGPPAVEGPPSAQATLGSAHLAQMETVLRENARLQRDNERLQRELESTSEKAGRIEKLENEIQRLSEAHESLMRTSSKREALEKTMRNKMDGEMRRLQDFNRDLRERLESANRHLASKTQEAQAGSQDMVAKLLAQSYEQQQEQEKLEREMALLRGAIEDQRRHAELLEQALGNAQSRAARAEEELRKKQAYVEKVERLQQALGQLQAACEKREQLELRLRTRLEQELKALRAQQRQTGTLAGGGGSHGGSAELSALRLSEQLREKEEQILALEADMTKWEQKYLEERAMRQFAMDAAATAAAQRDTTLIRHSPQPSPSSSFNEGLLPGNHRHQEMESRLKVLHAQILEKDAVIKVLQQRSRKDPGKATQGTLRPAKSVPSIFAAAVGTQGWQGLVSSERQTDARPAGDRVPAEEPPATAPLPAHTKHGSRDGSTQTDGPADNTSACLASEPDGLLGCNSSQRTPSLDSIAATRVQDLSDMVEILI
Chain of UniProt Q91WS0 (Q91WS0 whole entry, the tested form may be a part): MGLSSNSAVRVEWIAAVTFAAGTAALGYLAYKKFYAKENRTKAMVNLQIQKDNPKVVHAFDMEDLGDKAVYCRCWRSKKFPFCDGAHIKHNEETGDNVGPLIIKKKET

syn/allo ratio [1]: 6
syn/allo ratio [2]: 2
syn/allo ratio [3]: 2
syn/allo ratio [4]: 4
syn/allo ratio [5]: 9
syn/allo ratio [6]: 2.99
syn/allo ratio [7]: 2
syn/allo ratio [8]: 3
syn/allo ratio [9]: 4
syn/allo ratio [10]: 2.6
syn/allo ratio [11]: 2
Substance: syngeneic IgG (from sera of C57B1/6 mice) (antibody)
